Molecular target: PTBP1 (Homo sapiens, UniProt P26599 1-557)
Assay: EMSA; apparent Kd; tRNA competitor; EMSA, 10 uL: 6 uL DG buffer (20 mM Hepes-KOH pH 7.9, 20% glycerol, 80 mM K-glutamate, 0.2 mM EDTA, 0.2 mM PMSF), about 2.2 mM MgCl2, 0.05 mg/ml tRNA, RNaseOut
Details: protein: recombinant; label: 32P (alpha-32P UTP, internal)

Chain of PTBP1 (P26599 whole entry): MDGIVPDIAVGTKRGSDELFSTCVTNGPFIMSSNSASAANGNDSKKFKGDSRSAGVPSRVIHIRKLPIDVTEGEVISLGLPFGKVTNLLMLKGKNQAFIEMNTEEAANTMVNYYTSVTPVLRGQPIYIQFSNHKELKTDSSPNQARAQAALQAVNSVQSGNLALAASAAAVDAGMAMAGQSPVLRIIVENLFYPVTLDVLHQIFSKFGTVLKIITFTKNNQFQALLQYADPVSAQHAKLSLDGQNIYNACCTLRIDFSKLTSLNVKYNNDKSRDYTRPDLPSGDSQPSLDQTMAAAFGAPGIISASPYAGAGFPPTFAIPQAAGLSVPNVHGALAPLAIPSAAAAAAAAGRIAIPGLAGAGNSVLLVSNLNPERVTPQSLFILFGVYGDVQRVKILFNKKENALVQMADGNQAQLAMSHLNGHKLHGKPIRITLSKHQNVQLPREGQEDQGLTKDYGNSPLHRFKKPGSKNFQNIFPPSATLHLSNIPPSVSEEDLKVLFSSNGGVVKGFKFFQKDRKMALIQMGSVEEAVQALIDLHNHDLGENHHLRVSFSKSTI

B1: probe 10 (ssRNA)
RNA: GUGAGGGCUCUUUCUUCGUGGGACCGUAGAUAGGUAGCUGCUGCUGGUCUCACACUGUUCUCCCUACAG
**Q.** With B1 as the binder, how does the Kd read?
**A.** 73 nM

Reference: paper PMC3907290, “De Novo Prediction of PTBP1 Binding and Splicing Targets Reveals Unexpected Features of Its RNA Recognition and Function”
